Measurements published in patent publication US7176293B1, “Compositions and methods to enhance sensitivity of cancer cells to mitotic stress” (The Wistar Institute of Anatomy and Biology, priority 1999, dated 2007).

B1: Chfr-M580: chfr protein bearing a substitution of Val580 with Met (protein, UniProt Q96EP1 1-664, looked up, variant V580M)
E3 ubiquitin-protein ligase …: MERPEEGKQSPPPQPWGRLLRLGAEEGEPHVLLRKREWTIGRRRGCDLSFPSNKLVSGDHCRIVVDEKSGQVTLEDTSTSGTVINKLKVVKKQTCPLQTGDVIYLVYRKNEPEHNVAYLYESLSEKQGMTQESFEANKENVFHGTKDTSGAGAGRGADPRVPPSSPATQVCFEEPQPSTSTSDLFPTASASSTEPSPAGRERSSSCGSGGGGISPKGSGPSVASDEVSSFASALPDRKTASFSSLEPQDQEDLEPVKKKMRGDGDLDLNGQLLVAQPRRNAQTVHEDVRAAAGKPDKMEETLTCIICQDLLHDCVSLQPCMHTFCAACYSGWMERSSLCPTCRCPVERICKNHILNNLVEAYLIQHPDKSRSEEDVQSMDARNKITQDMLQPKVRRSFSDEEGSSEDLLELSDVDSESSDISQPYVVCRQCPEYRRQAAQPPHCPAPEGEPGAPQALGDAPSTSVSLTTAVQDYVCPLQGSHALCTCCFQPMPDRRAEREQDPRVAPQQCAVCLQPFCHLYWGCTRTGCYGCLAPFCELNLGDKCLDGVLNNNSYESDILKNYLATRGLTWKNMLTESLMALQRGVFLLSDYRVTGDTVLCYCCGLRSFRELTYQYRQNIPASELPVAVTSRPDCYWGRNCRTQVKAHHAMKFNHICEQTRFKN
B2: GST-Chfr: glutathione S-transferase fused to the N-terminus of full-length Chfr (protein)
chain: MERPEEGKQSPPPQPWGRLLRLGAEEGEPHVLLRKREWTIGRRRGCDLSFPSNKLVSGDHCRIVVDEKSGQVTLEDTSTSGTVINKLKVVKKQTCPLQTGDVIYLVYRKNEPEHNVAYLYESLSEKQGMTQESFEANKENVFHGTKDTSGAGAGRGADPRVPPSSPATQVCFEEPQPSTSTSDLFPTASASSTEPSPAGRERSSSCGSGGGGISPKGSGPSVASDEVSSFASALPDRKTASFSSLEPQDQEDLEPVKKKMRGDGDLDLNGQLLVAQPRRNAQTVHEDVRAAAGKPDKMEETLTCIICQDLLHDCVSLQPCMHTFCAACYSGWMERSSLCPTCRCPVERICKNHILNNLVEAYLIQHPDKSRSEEDVQSMDARNKITQDMLQPKVRRSFSDEEGSSEDLLELSDVDSESSDISQPYVVCRQCPEYRRQAAQPPHCPAPEGEPGAPQALGDAPSTSVSLTTAVQDYVCPLQGSHALCTCCFQPMPDRRAEREQDPRVAPQQCAVCLQPFCHLYWGCTRTGCYGCLAPFCELNLGDKCLDGVLNNNSYESDILKNYLATRGLTWKNMLTESLVALQRGVFLLSDYRVTGDTVLCYCCGLRSFRELTYQYRQNIPASELPVAVTSRPDCYWGRNCRTQVKAHHAMKFNHICEQTRFKN
modifications: left off: a dimerising Fc or GST
B3: Chfr-A325: Chfr mutant that substitutes Cys325 of the ring finger with Ala (protein, UniProt Q96EP1 1-664, looked up, variant C325A)
E3 ubiquitin-protein ligase …: MERPEEGKQSPPPQPWGRLLRLGAEEGEPHVLLRKREWTIGRRRGCDLSFPSNKLVSGDHCRIVVDEKSGQVTLEDTSTSGTVINKLKVVKKQTCPLQTGDVIYLVYRKNEPEHNVAYLYESLSEKQGMTQESFEANKENVFHGTKDTSGAGAGRGADPRVPPSSPATQVCFEEPQPSTSTSDLFPTASASSTEPSPAGRERSSSCGSGGGGISPKGSGPSVASDEVSSFASALPDRKTASFSSLEPQDQEDLEPVKKKMRGDGDLDLNGQLLVAQPRRNAQTVHEDVRAAAGKPDKMEETLTCIICQDLLHDCVSLQPCMHTFAAACYSGWMERSSLCPTCRCPVERICKNHILNNLVEAYLIQHPDKSRSEEDVQSMDARNKITQDMLQPKVRRSFSDEEGSSEDLLELSDVDSESSDISQPYVVCRQCPEYRRQAAQPPHCPAPEGEPGAPQALGDAPSTSVSLTTAVQDYVCPLQGSHALCTCCFQPMPDRRAEREQDPRVAPQQCAVCLQPFCHLYWGCTRTGCYGCLAPFCELNLGDKCLDGVLNNNSYESDILKNYLATRGLTWKNMLTESLVALQRGVFLLSDYRVTGDTVLCYCCGLRSFRELTYQYRQNIPASELPVAVTSRPDCYWGRNCRTQVKAHHAMKFNHICEQTRFKN

Key:
[1] = system: DLD1 and U20S cells; assay: Mitotic index of stably transfected DLD1 and U20S cells in response to nocodazole; format: cell-based, human
Procedure: (§1) Stable transfectants were prepared by transfecting DLD1 or U20S cells with 5 μg pSV2-HAchfr or pSV2-HAchfr-M580, or 5 μg pSV2 vector without insert and 1 μg pSV7neo plasmid [Wieczorek et al., supra] using Fugene-6 transfection reagent (Roche). Stably transfected cells were selected with G418. For transient expression, DLD1 or U20S cells were transfected with 5 μg pSV2-HAchfr or pSV2-HAchfrM580 or pSV2 plasmid without insert and 2 μg of a plasmid expressing green fluorescent protein using Fugene-6. SAOS2 cells were transfected as described above, except that the plasmids expressing Chfr were cotransfected with a plasmid expressing green fluorescent protein (GFP).
(§2) Cells were grown on 8-well culture slides coated with human fibronectin (Becton Dickinson) and were examined as either non-synchronized or synchronized cells. […] The slides were sealed with coverslips using Fluoromount-G (Upstate Biotechnology) and visualized with a fluorescence microscope (Leica). […]
To determine whether Chfr accounted for the different response, DLD1 and U20S cells were prepared to stably express HA-tagged wild-type Chfr or Chfr with the […] substitution (M580) or just the neo selectable marker. […] Furthermore, the different effects of wild-type Chfr and Chfr-M580 could not be attributed to differences in protein expression, as determined by immunoblotting. […]

[2] = system: DLD1 cells; assay: Mitotic index of transiently-transfected DLD1 cells exposed to mitotic stress; format: cell-based, human; conditions: DLD1 cells co-transfected with wild-type Chfr
Procedure: as §1, §2
About 50% of the cells expressed GFP, but the variable level of expression made it difficult to define a threshold above which a cell would be considered GFP-positive. Thus, to avoid any bias, the mitotic index was calculated for the entire cell population. […]

[3] = system: Chfr; assay: Ubiquitin-protein ligase assay in vitro; format: biochemical, human; conditions: crude bacterial lysates with E1, E2, ubiquitin and ATP; 20 minutes at 30° C.
Procedure: Recombinant E. coli bacterial cells that have been genetically engineered to express the E1 ubiquitin-activating enzyme and the E2 ubiquitin-conjugating enzyme (either UbchD2 or Ubch8) and a […] comprised of glutathione S-transferase fused to the N-terminus of Chfr were lysed. The lysates were incubated in the presence of ubiquitin and ATP and the reaction allowed to proceed for 20 minutes at 30° C. GST-Chfr was captured on glutathione beads, eluted with SDS sample buffer, and resolved by SDS-PAGE. The SDS gel was immunoblotted with antibodies that recognize ubiquitin. Reactions were performed with full-length Chfr fused to GST and reactions were performed with Chfr lacking amino acid residues 1–280 of SEQ ID NO: 2, which contain the FHA domain.

[4] = system: DLD1 cells; assay: Mitotic index of unsynchronized DLD1 cells stably expressing Chfr or Chfr-A325, exposed to nocodazole; format: cell-based, human; conditions: stably transfected unsynchronized DLD1 cells
Excerpt: To determine whether ubiquitin-protein ligase activity is required for checkpoint function, the Chfr mutant that substitutes Cys325 of the ring finger with Ala was stably-expressed in DLD1 cells. These cells were then exposed to mitotic stress and examined for entry into metaphase. The mitotic index of unsynchronized DLD1 cells exposed to nocodazole is high, indicating the absence of a checkpoint that would delay entry into metaphase in response to mitotic stress.

Molecule | mitotic index in response to nocodazole [1] | dominant negative effect on wild-type Chfr [2] | ubiquitin-protein ligase activity (ubiquitination of GST-Chfr) [3] | mitotic index after exposure to nocodazole [4]
B1 | high mitotic index | aid not act as a dominant negative mutant |  | 
B2 |  |  | efficient ubiquitination | 
B3 |  |  | lacks ubiquitin-protein ligase activity | did not lead to a low mitotic index
